# Laboratory results as given in article PMC12822440, “An Aptamer‐Based EXACT Anticoagulant as a Sustainable, Animal‐Free Alternative to Unfractionated Heparin”.
# How the values were obtained:
# [1] = target: T1, thrombin (alpha-thrombin) (UniProt P00734;P00734 315-363;364-622); experiment: filter binding; Nitrocellulose filter binding, 32P 5'-labelled aptamer (500 CPM/uL), selection buffer (composition not given), 5 min at room temperature, n = 2
# prothrombin = prothrombin (UniProt P00734 44-622); experiment: filter binding; dabigatran covalently attached to the aptamer; Nitrocellulose filter binding, 32P 5'-labelled aptamer (500 CPM/uL), selection buffer (composition not given), 5 min at room temperature, n = 2; details: protein: commercial; label: 5'-32P
# [2] = target: T1, thrombin (alpha-thrombin); experiment: filter binding; dabigatran covalently attached to the aptamer, occupies the active site; Nitrocellulose filter binding, 32P 5'-labelled aptamer (500 CPM/uL), selection buffer (composition not given), 5 min at room temperature, n = 2
Binder,Kd [1] [nM],Kd (prothrombin) [nM],Kd [2] [nM]
GGTTGGTGTGGTTGG (structured_DNA) [HD1],110,–,–
"GGTTGGTGTGGTTGGAAAAAAAAAAAA (structured_DNA, 3'-dabigatran conjugate (DAB) through 12-nt dA linker) [HD1-12A-DAB]",–,296,0.0131
